Source: patent US6329500A, “Transforming growth factor-β binding site” (University of Virginia Patent Foundation, priority 1999, dated 2001)
Values belong to the molecule of their own block, whether it stands above or below them.

Experiments:
TGF-β2 [1] = molecular target: T1, TGF-β2 (Homo sapiens, UniProt P61812); experiment: Ligand blot analysis of 125I-TGF-β2 binding to PVDF-immobilized proteins; conditions: SDS-PAGE, PVDF membrane, 125I-TGF-β2 20 pM, 2 h at 25° C.
T1 construct: purchased Genzyme (Cambridge, Mass.)
T1 sequence (P61812 303-414 limits assumed): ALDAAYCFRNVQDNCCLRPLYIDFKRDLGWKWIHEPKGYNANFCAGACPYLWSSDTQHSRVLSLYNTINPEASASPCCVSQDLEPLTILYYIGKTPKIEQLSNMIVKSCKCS
Description: To block free sulfhydryls, some samples were treated with 5 mM IAM for 2 h at 25° C. Equivalent amounts of each protein ([…]) were subjected to SDS-PAGE on 10% slabs. IAM-treated GST-α2 M-peptide fusion proteins were subjected to SDS-PAGE as well. All samples were electro-transferred to PVDF membranes. The membranes were blocked with 5% milk and 0.1% Tween 20 in PBS for 12 h at 4° C. and then rinsed with 0.1% Tween 20 in PBS (PBS-T). […] Biophys. Res. Commun. […] NGF-β was radioiodinated with Iodogen, to a specific activity of 2-5 μCi/μg, using the method recommended by the manufacturer. […] After washing the membranes with PBS-T, bound radioligands were detected by Phosphorlmager analysis.

FBHE cells = experiment: Endothelial cell proliferation assay, TGF-β alone; assay type: cell-based, bovine; conditions: TGF-β 10 pM, 1 h pulse
Description: (§1) Fetal bovine heart endothelial (FBHE) cells were cultured in DMEM supplemented with 10% FBS, 20 ng/ml acidic fibroblast growth factor, and 80 ng/ml basic fibroblast growth factor and passaged at subconfluence with trypsin-EDTA. To perform proliferation assays, the cells were plated at a density of 2×10^4 /well (24 well plates) in DMEM supplemented with 0.2% FBS. […] The fusion proteins were preincubated with the TGF-β for 15 min prior to addition to the cultures. At the completion of an incubation, the cultures were washed 3 times with serum-free DMEM and then allowed to incubate in DMEM with 0.2% FBS for 30 h. [^3 H]Thymidine was added for an additional 18 h; the cells were then harvested and [^3 H]thymidine incorporation was quantitated.

TGF-β2 [2] = molecular target: T1, TGF-β2; experiment: 125I-TGF-β2 binding to immobilized α2M-MA, solution-phase competition; conditions: increasing concentrations (4-250 nM)
Description: The wells were washed three times with PBS-T and blocked with PBS-T for 16 h at 4° C. […] In the presence of a fusion protein (FP) which binds TGF-β, the total concentration of TGF-β [βT ] was related to [βF ], at equilibrium, as follows: [βT ]=[βF ](1+[FP]/KI).

TGF-β2 [3] = molecular target: T1, TGF-β2; experiment: Binding of 125I-TGF-β2 to FP3 and FP4 in solution as determined by FPLC on Superose-12; conditions: fusion protein 0.5 μM, 125I-TGF-β2 0.5 nM, 30 min 37° C., n=2
Description: The flow rate was 0.4 ml/min. […] To calibrate the FPLC, the following proteins were subjected to chromatography on the same column: soybean trypsin inhibitor (Mr~21,500, Ve of 14.1 ml), ovalbumin (Mr~45,000, Ve of 12.9 ml), BSA (Mr~66,000, Ve of 12.1 ml), and BSA dimer (Mr~132,000, Ve of 10.9 ml).

RAW 264.7 cells = experiment: NO synthesis (nitrite in conditioned medium) by RAW 264.7 cells; assay type: cell-based, murine; conditions: 250 nM, SFM, 24 h
Description: NO synthesis by RAW 264.7 cells was quantitated by measuring the stable NO oxidation product, nitrite, in conditioned medium, as previously described (Anal. Biochem. 126, 131-138 (1982)). […] The fusion proteins were purified and detergent-free. After 24 h, conditioned medium (100 μl) was recovered and nitrite was measured. […] Biol, Chem. 270, 21919-21927 (1995)). The α2 M-induced increase in RAW 264.7 cell NO synthesis is inhibited by the NOS inhibitor, N^G -monomethyl-L-arginine.

TGF-β2 [4] = molecular target: T1, TGF-β2; experiment: Endothelial cell proliferation assay, neutralization of TGF-β2 by fusion proteins; assay type: cell-based
Description: as §1

TGF-β1 [5] = molecular target: T2, TGF-β1 (Homo sapiens, UniProt P01137); experiment: Endothelial cell proliferation assay, neutralization of TGF-β1 by fusion proteins; assay type: cell-based
T2 construct: purchased R&D Systems (Minneapolis, Minn.)
Description: as §1

TGF-β2 [6] = molecular target: T1, TGF-β2; conditions: read-out: KD for TGF-β2 (either TGF-β isoform); cited from earlier work
TGF-β1 [7] = molecular target: T2, TGF-β1; conditions: read-out: KD for TGF-β1 (either TGF-β isoform); cited from earlier work

B1: FP2: GST-fusion protein with human α2M amino acids 364-613 (protein)
chain: RGNEANYYSNATTDEHGLVQFSINTTNVMGTSLTVRVNYKDRSPCYGYQWVSEEHEEAHHTAYLVFSPSKSFVHLEPMSHELPCGHTQTVQAHYILNGGTLLGLKKLSFYYLIMAKGGIVRTGTHGLLVKQEDMKGHFSISIPVKSDIAPVARLLIYAVLPTGDVIGDSAKYDVENCLANKVDLSFSPSQSLPASHAHLRVTAAPQSVCALRAVDQSVLLMKPDAELSASSVYNLLPEKDLTGFPGPLND
modifications: free sulfhydryls blocked with iodoacetamide (IAM)
125I-TGF-β2 binding, ligand blot (TGF-β2 [1]): did not bind

B2: TGF-β2: transforming growth factor-β2 from Genzyme (protein, UniProt P61812 303-414, looked up)
Transforming growth factor …: ALDAAYCFRNVQDNCCLRPLYIDFKRDLGWKWIHEPKGYNANFCAGACPYLWSSDTQHSRVLSLYNTINPEASASPCCVSQDLEPLTILYYIGKTPKIEQLSNMIVKSCKCS
Decrease of [3H]thymidine incorporation (FBHE cells): 57%

B3: FP4: GST-fusion protein with human α2M amino acids 798-1082 (protein)
chain: CIRVSVQLEASPAFLAVPVEKEQAPHCICANGRQTVSWAVTPKSLGNVNFTVSAEALESQELCGTEVPSVPEHGRKDTVIKPLLVEPEGLEKETTFNSLLCPSGGEVSEELSLKLPPNVVEESARASVSVLGDILGSAMQNTQNLLQMPYGCGEQNMVLFAPNIYVLDYLNETQQLTPEIKSKAIGYLNTGYQRQLNYKHYDGSYSTFGERYGRNQGNTWLTAFVLKTFAQARAYIFIDEAHITQALIWLSQRQKDNGCFRSSGSLLNNAIKGGVEDEVTLSAYI
modifications: free sulfhydryls blocked with iodoacetamide (IAM)
Inhibition of 125I-TGF-β2 binding to immobilized α2M-MA (TGF-β2 [2]): did not inhibit
125I-TGF-β2 recovered (co-eluted) with the fusion protein (TGF-β2 [3]): 6%
Nitrite production by RAW 264.7 cells (RAW 264.7 cells): did not increase nitrite production
[3H]thymidine incorporation (% control) (TGF-β2 [4]; FBHE cells, fusion protein (0.2 μM) + TGF-β2 (10 pM), 1 h pulse): 38 ± 6%
Effect on TGF-β2 activity in FBHE proliferation assay (TGF-β2 [4]; fusion protein 200 nM, TGF-β2 10 pM): No change in TGF-β activity
125I-TGF-β2 binding, ligand blot (TGF-β2 [1]): did not bind
[3H]thymidine incorporation (% control) (TGF-β1 [5]; FBHE cells, fusion protein (0.2 μM) + TGF-β1 (10 pM), 1 h pulse): 31 ± 4%
Effect on TGF-β1 activity in FBHE proliferation assay (TGF-β1 [5]; fusion protein 200 nM, TGF-β1 10 pM): No change in TGF-β activity

More lines, main results first:

125I-TGF-β2 binding, ligand blot (TGF-β2 [1]): only trace levels
B4: MUG: monomeric murine homologue of human α2M, purified from plasma of CD-1 female mice (protein)
chain: DSKYMVLVPSQLYTETPEKICLHLYQLNETVTVTASLVSQSGRKNLFDELVLDKDLFQCVSFIIPRLSSSDEEDFLYVDIKGPTHEFSKRKAVLVKNKESVVFVQTDKPVYKPGQSVKFRVVSMDKMLRPLNELLPLAYIEDPKKNRIMQWRDIKTENGLKQMSFSLAAEPIQGPYKIVVHKESGEKEEHSFTVMEFVLPRFNVDLKVPNAMSVNDEVLSVTACGKYTYGKPVPGHVKINVCRETETGCREVNSQLDNNGCSTQEVNITELQSKKRNYEVQLFHVNATVTEEGTGLEFSRSGTTKIERITNKLIFLKADSHFRHGIPFFVKVRLVDIKGDPIPNEKVFIKAQELSYTSATTTDQHGLAEFSIDTTCISGSSLHIKVNHKEEDSCSYFYCMEERHASAKHVAYAVYSLSKSYIYLDTETSSILPCNQIHTVQAHFILKGDLGVLKELIFYYLVMAQGSIIQTGNHTHQVEPGEAPVKGKFALEIPVEFSMVPMAKMLIYTILPDGEVIADSVNFEIEKCLRNKVDLRFSTSQSLPASQTRLQVTASPQSLCGLRAVDQSVLLLKPESELSPSWIYNLPGMQQNKFVPSSRLSEDQEDCILYSSWLAEKHTNLVPHGTEKDVYRYVEDMGLTAFTNLMIKLPIICFDYGMVPISAPRVEFDLAFTPEISWSLRTTLSKRPEEPPRKDPSSNDPLTETIRKYFPETWVWDIVTVNSTGLAEVEMTVPDTITEWKAGALCLSNDTGLGLSSVVPLQAFKPFFVEVSLPYSVVRGEAFMLKATVMNYLPTSMQMSVQLEASPDFTAVPVGDDQDSYCLSANGRHTSSWLVTPKSLGNVNFSVSAEAQQSSEPCGSEVATVPETGRKDTVVKVLIVEPEGIKQEHTFSSLFCASDAEISEKMSLVLPPTVVKDSARAHFSVMGDILSSAIRNTQNLLHMPYGCGEQNMVLFAPNIYVLKYLNETQQLTQKIKTKALGFLRAGYQRELNYKHKDGSYSAFGDQNGEREGNTWLTAFVLKSFAQARAFIFIDESHITHAFTWLSQKQKDNGCFRSSGSLFNNAMKGGVDDEMTLSAYITMALLESSLPATHPVVSKALSCLESSWKTIEQERNASFVYTKALMAYAFALAGNQNKRDEILKSLDEEAIKENNSIHWKRPQKSRKSEHHLYKPQASSAEVEMNAYVVLARLTAQPAPSPEDLTLSMSTIMWLTKQQNSNGGFSSTQDTVVALDALSKYGAVTFSRSQKTTLVTIQSTGSFSQKFQVENSNRLLLQQVALPDIPGDYTISVSGEGCVYAQTMLRYNMHLEKQLSAFAIWVQTVPLTCNNPKGHNSFQISLEISYTGSRPASNMVIADVKMLSGFIPLKPTVKKLERLEHVSRTEVSNNNVLIYLDQVTNQTLAFSFIIQQDIPVRNLQPAIVKVYDYYETDEMAFAEYSSPCSTDKQNV
Kd (TGF-β2 [6]): ~1000 nM
Kd (TGF-β1 [7]): ~1000 nM

125I-TGF-β2 binding, ligand blot (TGF-β2 [1]): did not bind
B5: FP1: GST-fusion protein with human α2M amino acids 122-415 (protein)
chain: KFRVVSMDENFHPLNELIPLVYIQDPKGNRIAQWQSFQLEGGLKQFSFPLSSEPFQGSYKVVVQKKSGGRTEHPFTVEEFVLPKFEVQVTVPKIITILEEEMNVSVCGLYTYGKPVPGHVTVSICRKYSDASDCHGEDSQAFCEKFSGQLNSHGCFYQQVKTKVFQLKRKEYEMKLHTEAQIQEEGTVVELTGRQSSEITRTITKLSFVKVDSHFRQGIPFFGQVRLVDGKGVPIPNKVIFIRGNEANYYSNATTDEHGLVQFSINTTNVMGTSLTVRVNYKDRSPCYGYQWVS
modifications: free sulfhydryls blocked with iodoacetamide (IAM)

125I-TGF-β2 binding, ligand blot (TGF-β2 [1]): did not bind
B6: FP5: GST-fusion protein with human α2M amino acids 1053-1302 (protein)
chain: DNGCFRSSGSLLNNAIKGGVEDEVTLSAYITIALLEIPLTVTHPVVRNALFCLESAWKTAQEGDHGSHVYTKALLAYAFALAGNQDKRKEVLKSLNEEAVKKDNSVHWERPQKPKAPVGHFYEPQAPSAEVEMTSYVLLAYLTAQPAPTSEDLTSATNIVKWITKQQNAQGGFSSTQDTVVALHALSKYGAATFTRTGKAAQVTIQSSGTFSSKFQVDNNNRLLLQQVSLPELPGEYSMKVTGEGCVYLQ
modifications: free sulfhydryls blocked with iodoacetamide (IAM)
